Source: patent publication US20030087866

Biological target: T1, purified recombinant R2 protein, P11157
T1 chain: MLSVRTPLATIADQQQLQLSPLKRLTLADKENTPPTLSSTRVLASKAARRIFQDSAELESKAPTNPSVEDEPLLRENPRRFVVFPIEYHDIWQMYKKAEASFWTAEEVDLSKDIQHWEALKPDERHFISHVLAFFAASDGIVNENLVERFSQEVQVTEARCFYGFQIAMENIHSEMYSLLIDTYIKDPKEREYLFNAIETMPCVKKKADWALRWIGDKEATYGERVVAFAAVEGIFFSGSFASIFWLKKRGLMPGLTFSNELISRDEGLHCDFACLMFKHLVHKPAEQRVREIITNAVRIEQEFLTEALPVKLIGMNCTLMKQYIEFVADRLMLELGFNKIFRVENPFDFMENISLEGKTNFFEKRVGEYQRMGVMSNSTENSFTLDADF

B1: human Myc epitope-tagged mouse ribonucleotide reductase R1 protein (protein)
chain: EQKLISEEDLMHVIKRDGRQERVMFDKITSRIQKLCYGLNMDFVDPAQITMKVIQGLYSGVTTVELDTLAAETAATLTTKHPDYAILAARIAVSNLHKETKKVFSDVMEDLYNYINPHNGRHSPMVASSTLDIVMANKDRLNSAIIYDRDFSYNYFGFKTLERSYLLKINGKVAERPQHMLMRVSVGIHKEDIDAAIETYNLLSEKWFTHASPTLFNAGTNRPQLSSCFLLSMKDDSIEGIYDTLKQCALISKSAGGIGVAVSCIRATGSYIAGTNGNSNGLVPMLRVYNNTARYVDQGGNKRPGAFAIYLEPWHLDIFEFLDLKKNTGKEEQRARDLFFALWIPDLFMKRVETNQDWSLMCPNECPGLDEVWGEEFEKLYESYEKQGRVRKVVKAQQLWYAIIESQTETGTPYMLYKDSCNRKSNQQNLGTIKCSNLCTEIVEYTSKDEVAVCNLASLALNMYVTPEHTYDFEKLAEVTKVIVRNLNKIIDINYYPIPEAHLSNKRHRPIGIGVQGLADAFILMRYPFESPEAQLLNKQIFETIYYGALEASCELAKEYGPYETYEGSPVSKGILQYDMWNVAPTDLWDWKPLKEKIAKYGIRNSLLIAPMPTASTAQILGNNESIEPYTSNIYTRRVLSGEFQIVNPHLLKDLTERGLWNEEMKNQIIACNGSIQSIPEIPDDLKQLYKTVWEISQKTVLKMAAERGAFIDQSQSLNIHIAEPNYGKLTSMHFYGWKQGLKTGMYYLRTRPAANPIQFTLNKEKLKDKEKALKEEEEKERNTAAMVCSLENREECLMCGS
ribonucleotide reductase activity of the 9E10-immunoprecipitated R1 combined with purified recombinant R2: enzyme activity of 15.4±2.0 pmoles/mg/hr was detected when C1/mR1 cells (Table 1) were used as a source of recombinant R1
